Results on nine molecules are retold here after KR20220134462A (dated 2022).

Substitutions are numbered along the chain they refer to.

B1: #7 항체 (B7-H3 항체) (antibody, V domains shown)
VH: EVQLLESGGGLVQPGGSLRLSCAASGFTFSNFWIGWVRQAPGKGLEWVSWINPPGSITSYADSVKGRFTISRDNSKDTLYLQMNSLRAEDTAVYYCAREVGDVLDYWGQGTLVTVSS
VL: QSVLTQPPSASGTPGQRVTISCTGTSSDIGRYNYVSWYQQLPGTAPKLLIYRNTQRPSGVPDRFSGSKSGTSASLAISGLRSEDEADYYCGTWDSSLNAYVFGGGTKLTVL
B2: #1 항체 (B7-H3 항체) (antibody, V domains shown)
VH: EVQLLESGGGLVQPGGSLRLSCAASGFTFSSYAMSWVRQAPGKGLEWVSTITGSGGSTYYADSVKGRFTISRDNSKNTLYLQMNSLRAEDTAVYYCARYKSGAFDIWGQGTLVTVSS
VL: EIVLTQSPGTLSLSPGERATLSCRASQGIGNYLGWYQQKPGQAPRLLIYTASSLQSGIPDRFSGSGSGTDFTLTISRLEPEDFAVYYCQQGYSTPSWTFGQGTKVEIK
B3: #5 항체 (B7-H3 항체) (antibody, V domains shown)
VH: EVQLLESGGGLVQPGGSLRLSCAASGFTFSTYAMSWVRQAPGKGLEWVSAISGSGGSTLYADSVKGRFTISRDNSKNTLYLQMNSLRAEDTAVYYCARGGSATWAFDLWGQGTLVTVSS
VL: QSVLTQPPSASGTPGQRVTISCSGSSSNIGSNYVYWYQQLPGTAPKLLIYRNNQRPSGVPDRFSGSKSGTSASLAISGLRSEDEADYYCGTWDSSLSGVVFGGGTKLTVL
B4: #6 항체 (B7-H3 항체) (antibody, V domains shown)
VH: EVQLLESGGGLVQPGGSLRLSCAASGFTFSTYAISWVRQAPGKGLEWVSSIYYSGYTHYNPSLESRFTISRDNSKNTLYLQMNSLRAEDTAVYYCARGYSGWMDVWGQGTLVTVSS
VL: QSVLTQPPSASGTPGQRVTISCGGNNIGSKSVHWYQQLPGTAPKLLIYDNNKRPSGVPNRFSGSKSGTSASLAISGLRSEDEADYYCAAWDDSLNVPVFGGGTKLTVL
B5: #9 항체 (B7-H3 항체) (antibody, V domains shown)
VH: EVQLLESGGGLVQPGGSLRLSCAASGFTFSSYAMNWVRQAPGKGLEWVSTISGSGGQTYYADSVKGRFTISRDNSKNTLYLQMNSLRAEDTAVYYCARWRSIWAFDYWGQGTLVTVSS
VL: B4 VL with G23S, G24D, N59D, A88G, A89T, N95S, V96G
B6: #4 항체 (B7-H3 항체) (antibody, V domains shown)
VH: EVQLLESGGGLVQPGGSLRLSCAASGFTFSSYGMHWVRQAPGKGLEWVSAISGSGTSIYYANSVKSRFTISRDNSKNTLYLQMNSLRAEDTAVYYCARGAGWFDYWGQGTLVTVSS
VL: QSVLTQPPSASGTPGQRVTISCSGSTSNIGSNTVNWYQQLPGTAPKLLIYGKNIRPNGVPDRFSGSKSGTSASLAISGLHSEDEADYYCQSYDSSLSGWVFGGGTKLTVL
B7: #3 항체 (B7-H3 항체) (antibody, V domains shown)
VH: EVQLLESGGGLVQPGGSLRLSCAASGFTFSTYYMTWVRQAPGKGLEWVSIINPRGGSTSYAEKFQGRFTISRDNSKNTLYLQMNSLRAEDTAVYYCARWNLGMDVWGQGTLVTVSS
VL: EIVLTQSPGTLSLSPGERATLSCRVSQSISSYLNWYQQKPGQAPRLLIYDASHRATGIPDRFSGSGSGTDFTLTISRLEPEDFAVYYCQQYYAPSVTFGQGTKVEIK
B8: #2 항체 (B7-H3 항체) (antibody, V domains shown)
VH: EVQLLESGGGLVQPGGSLRLSCAASGFTFSAYYMIWVRQAPGKGLEWVSITNPSGGVTSYAQKFQGRFTISRDNSKNTLYLQMNSLRAEDTAVYYCARVGGRGFDIWGQGTLVTVSS
VL: EIVLTQSPGTLSLSPGERATLSCHASQGISNYVAWYQQKPGQAPRLLIYDASNRATGIPDRFSGSGSGTDFTLTISHLEPEDFAVYYCQQSYSTLLTFGQGTKVEIK
B9: #8 항체 (B7-H3 항체) (antibody, V domains shown)
VH: EVQLLESGGGLVQPGSSLRLSCAASGFTFSSYWISWVRQAPGKGLEWVSEISPSGNTNYNPSLKSRFTISRDNSKNTLYLQMNSLRAEDTAVYYCAREVGDLLDYWGQGTLVTVSS
VL: QSVLTQPPSASGTPGQRVTISCSGSNIGNNYVSWYQQLPGTAPKLLIYQDSKRPSGVPDRFSGSKSGTSASLAISGLRSEDEADYYCLVWDRSSDHFVFGGGTKLTVL

In one experiment the target is T1, MCF-7 세포주의 세포막에 발현된 B7-H3 (UniProt Q5ZPR3 29-534).
T1 construct: whole, on cells; Endogenous B7-H3 of the MCF-7 cell line; also called MCF-7 cell
T1 sequence (looked up): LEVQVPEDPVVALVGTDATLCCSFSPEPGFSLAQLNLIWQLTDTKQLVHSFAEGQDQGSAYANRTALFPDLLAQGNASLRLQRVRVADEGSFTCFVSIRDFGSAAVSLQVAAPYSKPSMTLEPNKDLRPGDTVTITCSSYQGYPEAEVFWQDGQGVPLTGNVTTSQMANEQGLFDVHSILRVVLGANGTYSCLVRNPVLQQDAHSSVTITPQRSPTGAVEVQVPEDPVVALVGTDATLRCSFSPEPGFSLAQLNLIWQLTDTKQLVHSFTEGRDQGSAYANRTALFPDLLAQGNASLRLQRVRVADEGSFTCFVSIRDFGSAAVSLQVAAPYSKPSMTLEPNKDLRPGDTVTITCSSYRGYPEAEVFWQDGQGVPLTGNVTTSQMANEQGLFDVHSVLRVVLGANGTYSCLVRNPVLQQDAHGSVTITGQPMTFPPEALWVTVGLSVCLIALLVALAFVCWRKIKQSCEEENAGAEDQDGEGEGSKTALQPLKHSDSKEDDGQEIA
Kind of experiment: cell ELISA on fixed MCF-7 cells (표 2).
Broadly, the EC50 is the concentration that produces a half-maximal response. A high value points to a need for much substance. In turn, B1 showed an EC50 of 1.01 nM.

For B2, the EC50 was 0.605 nM.

In turn, B3 gave an EC50 of 1.74 nM.

Turning to B4, it took 0.234 nM to reach a half-maximal effect (EC50). This EC50 lies about 7.4-fold lower than the previous one.

For B5, the EC50 amounted to 0.322 nM. This EC50 and that of the molecule before are within 1.5-fold of each other.

For B6, the EC50 was determined as 0.502 nM.

As for B7, the response was half-maximal at 0.197 nM (EC50).

As to B8, the EC50 is 0.061 nM.

Take B9: the EC50 amounted to 0.159 nM.

The next experiment concerns the target RKO/B7H3 세포주에 과발현된 B7-H3 (UniProt Q5ZPR3). Kind of experiment: cell ELISA on fixed RKO/B7H3 cells (표 3). A general note: An ELISA detects its analyte on a solid surface through an enzyme-linked reagent.
On to B1, for which the EC50 stood at 0.187 nM. This counts as sub-nanomolar.

Turning to B2, the EC50 is 0.015 nM.

The molecule B3 gave an EC50 of 0.091 nM.

Regarding B4, the concentration giving a half-maximal response (EC50) worked out at 0.065 nM.

Turning to B5, the half-maximal effective concentration (EC50) was 0.05 nM.

In the case of B6, the EC50 was determined as 0.042 nM. The EC50 values of the last two molecules are within 1.5-fold of each other.

Molecule B7 yielded a concentration for a half-maximal effect (EC50) of 0.065 nM.

Turning to B8, the EC50 came to 0.036 nM.

Regarding B9, the EC50 came to 0.06 nM.
